Data on one molecule can be found in PMC11273609, “Single-Molecule Detection of the Encounter and Productive Electron Transfer Complexes of a Photosynthetic Reaction Center” (Journal of the American Chemical Society, 2024).

What all share (settings): both partners purified
For assay [1], the target named is T1, wild-type reaction center-light harvesting complex 1 (RC-LH1), His10-tag on the RC H-subunit (Rhodobacter sphaeroides, UniProt P0C0Y7 1-260; P0C0Y8 1-282; P0C0Y9 1-308; P0C0X9 1-55; P0C0Y1 7-49; P13402 1-82). Put plainly: single-molecule force spectroscopy (AFM, PF-QNM); cyt c2-His6 on the AFM probe, His10-tagged RC-LH1 on the SiOx substrate; oxidized RC-LH1, oxidized cyt c2 (probe treated with 0.8 mM potassium ferricyanide); 10 mM HEPES pH 7.4, 10 mM NaCl.

In assay [2] the target is T2, Q(L264)E mutant RC-LH1 complex, His10-tag on the RC H-subunit (Rhodobacter sphaeroides, UniProt P0C0Y7 1-260; P0C0Y8 1-282; P0C0Y9 1-308; P0C0X9 1-55; P0C0Y1 7-49; P13402 1-82, Q(L264)E). The assay is described as above.
The target of assay [3] is T3, N(M188)D mutant RC-LH1 complex, His10-tag on the RC H-subunit (Rhodobacter sphaeroides, UniProt P0C0Y7 1-260; P0C0Y8 1-282; P0C0Y9 1-308; P0C0X9 1-55; P0C0Y1 7-49; P13402 1-82, N(M188)D). The assay is described as above.
In assay [4] the target is T4, D(M184)K mutant RC-LH1 complex, His10-tag on the RC H-subunit (Rhodobacter sphaeroides, UniProt P0C0Y7 1-260; P0C0Y8 1-282; P0C0Y9 1-308; P0C0X9 1-55; P0C0Y1 7-49; P13402 1-82, D(M184)K). Described as above.
The target of assay [5] is T1, wild-type reaction center-light …. Nature of the assay: single-molecule force spectroscopy (AFM, PF-QNM); cyt c2-His6 on the AFM probe via Ni2+-NTA and a PEG linker, His10-tagged RC-LH1 or RC-only complexes on a Ni2+-NTA SiOx substrate; oxidized RC, reduced cyt c2; 10 mM HEPES pH 7.4, 10 mM NaCl.
In assay [6] the target is T2, Q(L264)E mutant RC-LH1 complex, …. The assay is described as above.
Assay [7] concerns the target T3, N(M188)D mutant RC-LH1 complex, …. The assay is described as above.
The target in assay [8] is T4, D(M184)K mutant RC-LH1 complex, …. The assay is described as above.

B1: cytochrome c2 (cyt c2), His6-tagged (natural protein)
chain: QEGDPEAGAKAFNQCQTCHVIVDDSGTTIAGRNAKTGPNLYGVVGRTAGTQADFKGYGEGMKEAGAKGLAWDEEHFVQYVQDPTKFLKEYTGDAKAKGKMTFKLKKEADAHNIWAYLQQVAVRP
notes: cytochrome c2 of Rhodobacter sphaeroides (gene cycA); the His6-tag follows the C-terminal residue Pro124; Carries a heme cofactor; used pre-reduced (dithionite and phenazine methosulfate) or pre-oxidized (ferricyanide), the redox state is told in the assay; also called reduced cyt c2; oxidized cyt c2; not shown: His6, C-terminal, kept
As to B1, the cumulative interaction probability in assay [1] was 32%; in assay [2], 36%; in assay [3], 37%; in assay [4] it was 20%; in assay [5], about 34%; in assay [6], 39%. The figures for the cumulative interaction probability in assay [7] and in assay [8] were 40% and 24%, respectively.
